Assay results taken from patent US20240270846A1 (published 2024).
Substitutions are numbered along the chain they refer to. Numbers in names are those of the source. Blank lines part the entries; values can stand above or below the binder they belong to.

Molecular target: T1, CD3 epsilon homodimer protein (UniProt P07766 23-126)
T1 construct: also called CD3 (CD3 epsilon)
Test: SPR Biacore T200, antibody over immobilised CD3e homodimer;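 also: CD3 epsilon homodimer amine-coupled on a CM4 chip, run at 25 °C in HBS-EP+, Z = bound amount of each single-residue H chain variant over that of the parent antibody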

T1 sequence (P07766 23-126): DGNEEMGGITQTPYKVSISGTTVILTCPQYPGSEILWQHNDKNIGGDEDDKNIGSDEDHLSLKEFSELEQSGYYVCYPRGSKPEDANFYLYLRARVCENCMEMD

ratio of amounts bound (Z=Y/X vs CE115HA000): 0.68
B6: CE115HA000 N31H one-arm antibody (antibody, human IgG1, kappa, L234A L235A, N297A, name in Kabat numbering)
heavy: QVQLVESGGGVVQPGRSLRLSCAASGFTFSHAWMHWVRQAPGKGLEWVAQIKAKSNNYATYYAESVKGRFTISRDDSKNSLYLQMNSLKTEDTAVYYCRYVHYGAYYGVDAWGQGTTVTVSSASTKGPSVFPLAPSSKSTSGGTAALGCLVKDYFPEPVTVSWNSGALTSGVHTFPAVLQSSGLYSLSSVVTVPSSSLGTQTYICNVNHKPSNTKVDKKVEPKSCDKTHTCPPCPAPEAAGGPSVFLFPPKPKDTLMISRTPEVTCVVVDVSHEDPEVKFNWYVDGVEVHNAKTKPREEQYASTYRVVSVLTVLHQDWLNGKEYKCKVSNKALPAPIEKTISKAKGQPREPQVYTLPPSRCELTKNQVSLSCAVKGFYPSDIAVEWESNGQPENNYKTTPPVLDSDGSFFLVSKLTVDKSRWQQGNVFSCSVMHEALHNHYTQKSLSLSPDYKDDDDK
chain: EPKSSDKTHTCPPCPAPELLGGPSVFLFPPKPKDTLMISRTPEVTCVVVDVSHEDPEVKFNWYVDGVEVHNAKTKPREEQYNSTYRVVSVLTVLHQDWLNGKEYKCKVSNKALPAPIEKTISKAKGQPREPQVCTLPPSRDELTKNQVSLWCLVKGFYPSDIAVEWESNGQPENNYKTTPPVLDSDGSFFLYSKLTVDKSRWQQGNVFSCSVMHEALHNRYTQKSLSLSP
light: DIVMTQSPLSLPVTPGEPASISCRSSQSLVHSNRNTYLHWYQQKPGQAPRLLIYKVSNRFSGVPDRFSGSGSGTDFTLKISRVEAEDVGVYYCGQGTQVPYTFGQGTKLEIKRTVAAPSVFIFPPSDEQLKSGTASVVCLLNNFYPREAKVQWKVDNALQSGNSQESVTEQDSKDSTYSLSSTLTLSKADYEKHKVYACEVTHQGLSSPVTKSFNRGEC
notes: one-arm antibody

ratio of amounts bound (Z=Y/X vs CE115HA000): 1.01
B7: CE115HA000 N31K one-arm antibody (antibody, human IgG1, kappa, L234A L235A, N297A, name in Kabat numbering)
heavy: B6 heavy with H31K
chain: B6 chain
light: B6 light
notes: one-arm antibody

ratio of amounts bound (Z=Y/X vs CE115HA000): 0.74
B9: CE115HA000 K64E one-arm antibody (antibody, human IgG1, kappa, L234A L235A, N297A, name in Kabat numbering)
heavy: B6 heavy with H31N, K67E
chain: B6 chain
light: B6 light
notes: one-arm antibody

ratio of amounts bound (Z=Y/X vs CE115HA000): 1.14
B10: CE115HA000 N31R one-arm antibody (antibody, human IgG1, kappa, L234A L235A, N297A, name in Kabat numbering)
heavy: B6 heavy with H31R
chain: B6 chain
light: B6 light
notes: one-arm antibody

ratio of amounts bound (Z=Y/X vs CE115HA000): 0.62
B19: CE115HA000 N31F one-arm antibody (antibody, human IgG1, kappa, L234A L235A, N297A, name in Kabat numbering)
heavy: B6 heavy with H31F
chain: B6 chain
light: B6 light
notes: one-arm antibody

ratio of amounts bound (Z=Y/X vs CE115HA000): 0.5
B21: CE115HA000 N31A one-arm antibody (antibody, human IgG1, kappa, L234A L235A, N297A, name in Kabat numbering)
heavy: B6 heavy with H31A
chain: B6 chain
light: B6 light
notes: one-arm antibody

ratio of amounts bound (Z=Y/X vs CE115HA000): 0.49
B23: CE115HA000 N31Q one-arm antibody (antibody, human IgG1, kappa, L234A L235A, N297A, name in Kabat numbering)
heavy: B6 heavy with H31Q
chain: B6 chain
light: B6 light
notes: one-arm antibody

ratio of amounts bound (Z=Y/X vs CE115HA000): 0.39
B24: CE115HA000 N31G one-arm antibody (antibody, human IgG1, kappa, L234A L235A, N297A, name in Kabat numbering)
heavy: B6 heavy with H31G
chain: B6 chain
light: B6 light
notes: one-arm antibody

ratio of amounts bound (Z=Y/X vs CE115HA000): 0.81
B26: CE115HA000 N31I one-arm antibody (antibody, human IgG1, kappa, L234A L235A, N297A, name in Kabat numbering)
heavy: B6 heavy with H31I
chain: B6 chain
light: B6 light
notes: one-arm antibody

ratio of amounts bound (Z=Y/X vs CE115HA000): 0.37
B29: CE115HA000 N31D one-arm antibody (antibody, human IgG1, kappa, L234A L235A, N297A, name in Kabat numbering)
heavy: B6 heavy with H31D
chain: B6 chain
light: B6 light
notes: one-arm antibody

The remaining lines, values behind:

B1: CE115HA000 I51E one-arm antibody (antibody, human IgG1, kappa, L234A L235A, N297A, name in Kabat numbering)
heavy: B6 heavy with H31N, I51E
chain: B6 chain
light: B6 light
notes: one-arm antibody
ratio of amounts bound (Z=Y/X vs CE115HA000): 0.55

B2: CE115HA000 K52H one-arm antibody (antibody, human IgG1, kappa, L234A L235A, N297A, name in Kabat numbering)
heavy: B6 heavy with H31N, K52H
chain: B6 chain
light: B6 light
notes: one-arm antibody
ratio of amounts bound (Z=Y/X vs CE115HA000): 0.22

B3: CE115HA000 K52E one-arm antibody (antibody, human IgG1, kappa, L234A L235A, N297A, name in Kabat numbering)
heavy: B6 heavy with H31N, K52E
chain: B6 chain
light: B6 light
notes: one-arm antibody
ratio of amounts bound (Z=Y/X vs CE115HA000): 0.26

B4: CE115HA000 K52bR one-arm antibody (antibody, human IgG1, kappa, L234A L235A, N297A, name in Kabat numbering)
heavy: B6 heavy with H31N, K54R
chain: B6 chain
light: B6 light
notes: one-arm antibody
ratio of amounts bound (Z=Y/X vs CE115HA000): 1.11

B5: CE115HA000 K43E one-arm antibody (antibody, human IgG1, kappa, L234A L235A, N297A, name in Kabat numbering)
heavy: B6 heavy with H31N, K43E
chain: B6 chain
light: B6 light
notes: one-arm antibody
ratio of amounts bound (Z=Y/X vs CE115HA000): 0.9

B8: CE115HA000 K52bQ one-arm antibody (antibody, human IgG1, kappa, L234A L235A, N297A, name in Kabat numbering)
heavy: B6 heavy with H31N, K54Q
chain: B6 chain
light: B6 light
notes: one-arm antibody
ratio of amounts bound (Z=Y/X vs CE115HA000): 0.6

B11: CE115HA000 K64A one-arm antibody (antibody, human IgG1, kappa, L234A L235A, N297A, name in Kabat numbering)
heavy: B6 heavy with H31N, K67A
chain: B6 chain
light: B6 light
notes: one-arm antibody
ratio of amounts bound (Z=Y/X vs CE115HA000): 0.82

B12: CE115HA000 K52D one-arm antibody (antibody, human IgG1, kappa, L234A L235A, N297A, name in Kabat numbering)
heavy: B6 heavy with H31N, K52D
chain: B6 chain
light: B6 light
notes: one-arm antibody
ratio of amounts bound (Z=Y/X vs CE115HA000): 0.25

B13: CE115HA000 K52bN one-arm antibody (antibody, human IgG1, kappa, L234A L235A, N297A, name in Kabat numbering)
heavy: B6 heavy with H31N, K54N
chain: B6 chain
light: B6 light
notes: one-arm antibody
ratio of amounts bound (Z=Y/X vs CE115HA000): 0.27

B14: CE115HA000 K52W one-arm antibody (antibody, human IgG1, kappa, L234A L235A, N297A, name in Kabat numbering)
heavy: B6 heavy with H31N, K52W
chain: B6 chain
light: B6 light
notes: one-arm antibody
ratio of amounts bound (Z=Y/X vs CE115HA000): 0.22

B15: CE115HA000 K52F one-arm antibody (antibody, human IgG1, kappa, L234A L235A, N297A, name in Kabat numbering)
heavy: B6 heavy with H31N, K52F
chain: B6 chain
light: B6 light
notes: one-arm antibody
ratio of amounts bound (Z=Y/X vs CE115HA000): 0.17

B16: CE115HA000 K52bD one-arm antibody (antibody, human IgG1, kappa, L234A L235A, N297A, name in Kabat numbering)
heavy: B6 heavy with H31N, K54D
chain: B6 chain
light: B6 light
notes: one-arm antibody
ratio of amounts bound (Z=Y/X vs CE115HA000): 0.27

B17: CE115HA000 K52bY one-arm antibody (antibody, human IgG1, kappa, L234A L235A, N297A, name in Kabat numbering)
heavy: B6 heavy with H31N, K54Y
chain: B6 chain
light: B6 light
notes: one-arm antibody
ratio of amounts bound (Z=Y/X vs CE115HA000): 0.74

B18: CE115HA000 K52R one-arm antibody (antibody, human IgG1, kappa, L234A L235A, N297A, name in Kabat numbering)
heavy: B6 heavy with H31N, K52R
chain: B6 chain
light: B6 light
notes: one-arm antibody
ratio of amounts bound (Z=Y/X vs CE115HA000): 0.91

B20: CE115HA000 K52Y one-arm antibody (antibody, human IgG1, kappa, L234A L235A, N297A, name in Kabat numbering)
heavy: B6 heavy with H31N, K52Y
chain: B6 chain
light: B6 light
notes: one-arm antibody
ratio of amounts bound (Z=Y/X vs CE115HA000): 0.18

B22: CE115HA000 K52S one-arm antibody (antibody, human IgG1, kappa, L234A L235A, N297A, name in Kabat numbering)
heavy: B6 heavy with H31N, K52S
chain: B6 chain
light: B6 light
notes: one-arm antibody
ratio of amounts bound (Z=Y/X vs CE115HA000): 0.28

B25: CE115HA000 K64D one-arm antibody (antibody, human IgG1, kappa, L234A L235A, N297A, name in Kabat numbering)
heavy: B6 heavy with H31N, K67D
chain: B6 chain
light: B6 light
notes: one-arm antibody
ratio of amounts bound (Z=Y/X vs CE115HA000): 0.72

B27: CE115HA000 K52I one-arm antibody (antibody, human IgG1, kappa, L234A L235A, N297A, name in Kabat numbering)
heavy: B6 heavy with H31N, K52I
chain: B6 chain
light: B6 light
notes: one-arm antibody
ratio of amounts bound (Z=Y/X vs CE115HA000): 0.33

B28: CE115HA000 K52bA one-arm antibody (antibody, human IgG1, kappa, L234A L235A, N297A, name in Kabat numbering)
heavy: B6 heavy with H31N, K54A
chain: B6 chain
light: B6 light
notes: one-arm antibody
ratio of amounts bound (Z=Y/X vs CE115HA000): 0.67

B30: CE115HA000 K52bS one-arm antibody (antibody, human IgG1, kappa, L234A L235A, N297A, name in Kabat numbering)
heavy: B6 heavy with H31N, K54S
chain: B6 chain
light: B6 light
notes: one-arm antibody
ratio of amounts bound (Z=Y/X vs CE115HA000): 0.68

B31: CE115HA000 K43Q one-arm antibody (antibody, human IgG1, kappa, L234A L235A, N297A, name in Kabat numbering)
heavy: B6 heavy with H31N, K43Q
chain: B6 chain
light: B6 light
notes: one-arm antibody
ratio of amounts bound (Z=Y/X vs CE115HA000): 0.99

B32: CE115HA000 K52N one-arm antibody (antibody, human IgG1, kappa, L234A L235A, N297A, name in Kabat numbering)
heavy: B6 heavy with H31N, K52N
chain: B6 chain
light: B6 light
notes: one-arm antibody
ratio of amounts bound (Z=Y/X vs CE115HA000): 0.34

B33: CE115HA000 K52bL one-arm antibody (antibody, human IgG1, kappa, L234A L235A, N297A, name in Kabat numbering)
heavy: B6 heavy with H31N, K54L
chain: B6 chain
light: B6 light
notes: one-arm antibody
ratio of amounts bound (Z=Y/X vs CE115HA000): 0.61
